Laboratory results taken from patent publication US7258861B2, “TNF-derived peptides for use in treating oedema” (Innogenetics N.V., priority 2001, dated 2007).
Positions of bridges follow the written chain, without caps; N, C: chain ends. No end group written: not given here. *: point of attachment. Biotin = O=C1N[C@H]2[C@H](CS[C@H]2CCCCC(=O)*)N1

How the values were obtained:
[1] = system: lung microvascular endothelial cells; experiment: Whole-cell patch clamp, membrane conductance in lung microvascular endothelial cells; type: cell-based, mouse
Excerpt: (§1) Animals, cells and reagents. Male CBA/J or C57BL/6 mice, as well as male TNFR ½^0/0 C57BL/6 mice deficient in TNF receptors (Bruce et al., 1996) provided by H. Bluethmann, F. Hoffmann-La Roche, Basel, Switzerland, were used at the age of 8–10 weeks. Their care was in accordance with institutional guidelines. Lung microvascular endothelial cells were isolated from CBA/J mice and characterized as described (Jackson et al., 1990) using magnetic beads (Dynabeads M-450, Dynal, Oslo, Norway), covalently bound to a purified rat-anti-mouse PECAM-1 monoclonal antibody (donated by B. Imhof, University of Geneva). Microvascular lung endothelial cells were resuspended in DMEM containing 2 mM L-glutamine, 100 U/ml penicillin, […], 20% FCS, 40 U/ml heparin and […] endothelial cell growth supplement (Brunschwig Chemie, Basel, Switzerland). For patch clamp experiments, cells were plated onto 35×10 mm easy grip Petri dishes (Beckton Dickinson, Plymouth, UK), pre-coated with 0.2% gelatin (Sigma, Buchs, Switzerland). Resident peritoneal macrophages, isolated in ice cold RPMI containing antibiotics and 10 U/ml Heparin, were left to adhere onto 35×10 mm easy grip Petri dishes for 4 h, after which the non-adherent cells were removed. Cells were grown in RPMI 1640 containing 2 mM L-glutamine, 100 U/ml penicillin, 10 μpg/ml streptomycin and 10% fetal bovine serum (all from Gibco). For patch clamp, the macrophages ware used 24 h after isolation.
Electrophysiology. Cells were pretreated for 30 min with TNF, mutTNF and tip peptides at 37° C. in a buffer consisting of 145 mM NaCl, 3 mM KCl, 2mM CaCl2, 2mM MgCl2, 10 mM D-glucose, and 10mM Hepes, and pH-adjusted with NaOH to required value. Cells were then washed with the same buffer pH-adjusted at 7.3, and experiments were performed using the tight-seal, whole-cell recording technique. Currents were recorded with an Axopatch-200A amplifier (Axon Instrument Inc, Foster City, Calif., USA), low pass-filtered at 1 kHz. Digitalization and off-line analysis was performed using the WCP program (J. Dempster, Strathclyde Electrophysiology Software, Glasgow, UK). Patch pipettes were pulled from borosilicate glass and fire polished to have an open resistance of 3–5 MW with an internal solution containing […], 2 mM MgCl2, 10mM EGTA, 20 mM TEA-Cl, 10 mM D-glucose 10 mM Hepes, pH-adjusted to 7.3 with CsOH. Series resistances were kept under 10 MW. Capacitance and series resistance compensation were applied and set to 70%. All experiments were done at room temperature. Results are given as mean ±SEM, unless otherwise indicated. Analysis of variance was performed on currents and membrane conductance values, with post-hoc Dunn-Bonferroni test for significance of differences observed between two groups. A P value of 0.05 was considered significant.

[2] = system: resident peritoneal macrophages; experiment: Whole-cell patch clamp in resident peritoneal macrophages; type: cell-based, mouse; conditions: 30 min preincubation, acidic pH
Excerpt: as §1, with “Cells were grown in RPMI 1640 containing 2 mM L-glutamine, 100 U/ml penicillin, 10 μpg/ml streptomycin and 10% fetal bovine serum (all from Gibco). For patch clamp, the macrophages ware used 24 h after isolation.” left out
(§2) Electrophysiology. […] Currents were recorded with an Axopatch-200A amplifier (Axon Instrument Inc, Foster City, Calif., USA), low pass-filtered at 1 kHz. […]

[3] = system: resident peritoneal macrophages from mice deficient in both TNF receptor-1 and -2; experiment: Whole-cell patch clamp in resident peritoneal macrophages of TNFR1/2-deficient mice; type: cell-based, mouse; conditions: cells lacking TNF receptors
Excerpt: as §1, with “Cells were grown in RPMI 1640 containing 2 mM L-glutamine, 100 U/ml penicillin, 10 μpg/ml streptomycin and 10% fetal bovine serum (all from Gibco). For patch clamp, the macrophages ware used 24 h after isolation.” left out
as §2

[4] = Chloride efflux from SPQ-containing liposomes
Description: Preparation of liposomes. Large unilamellar liposomes were prepared by reverse phase evaporation as previously described (Vecsey-Semjen et al., 1996). Liposomes were prepared of either 100% egg phosphatidylglycerol (EPG) or a mixture of EPC and EPG (1:1 W/W) in a buffer containing 100 mM KCl, 20 mM N-[2-Hydroxyethyl]piperazine-N′-[2-ethane-sulfonic acid] (HEPES), pH 7.4 and 1.5 mg/ml of 6-methoxy-N-(3-sulfopropyl)quinolinium (SPQ).
Choride efflux measurements. All fluorescence experiments were carried out using a PTI spectrofluorometer equipped with a thermostated cell holder (37° C.). The dye was excited at 350 nm and emission was recorded at 422 nm, both excitation and emission band widths were set to 5 nm. Liposomes were diluted to a final concentration of 50 μg/ml in a solution containing 100 mM KNO3 and 20 mM MES pH 6.1 or 20 mM HEPES, pH 7.4. Wild type and mutant TNF were added to a final concentration of 3 μg/ml.

isolated rat lungs = experiment: Isolated lung perfusion experiments (blood perfused, flooded with NaCl); conditions: after injection of 2 ml NaCl solution; 1 mg/lung
Description: Lungs of female Whistar rats weighing about 300 g were isolated as described in DeCampos et al. (1993). The lungs were injected intratracheally with either 500 μl of sterile […], wild type murine TNF (1 μg/lung) or mTNF tip peptide (Ltip (SEQ ID NO:6), see above; 1 mg/lung). Subsequently, the lungs were perfused with blood isolated from the same rat. Thirty minutes later, the lungs were injected intratracheally with 2 ml of sterile […] solution which leads to a weight increase of about 2 g (FIG. 5). The weight evolution was then followed continuously for 150 min (FIG. 5).

[5] = Tryptophan fluorescence (acidic unfolding); type: physicochemical
Description: Tryptophan fluorescence. Fluorescence measurements were made with a PTI spectrofluorimeter. The excitation wavelength was 295 nm and slit widths were 5 nm and 2.5 nm for excitation and emission respectively. For each recorded spectrum, the Raman scatter contribution was removed by subtraction of a buffer blank. All buffers contained 150 mM NaCl, and 20 mM of N-[2-morpholino] ethane-sulfonic acid (MES) buffer at the desired pH. The samples were allowed to incubate for 1 h 30 at the desired pH before measuring the emission spectrum. The wild type and mutant TNF concentrations were 6 μg/ml.

[6] = Quenching of tryptophan fluorescence by brominated lipids; conditions: acidic pH
Excerpt: In order to investigate whether chloride efflux was due to membrane binding or membrane insertion of TNF, we have analyzed whether brominated lipids were able to quench the intrinsic fluorescence of TNF and mutTNF upon membrane interaction. Brominated lipids have been useful in determining the topology of membrane proteins (Bolon et al., 1990) (Markello et al., 1985) as well as studying the membrane interaction of pore-forming toxins (Gonzalez-Manas et al., 1992) (Van der Goot et al., 1991) (Vecsey-Semjen et al., 1997). TNF contains two tryptophan residues, one at the top of the receptor binding domain and one at the top of the so called tip domain. If the tip of the TNF trimer were to insert into the lipid bilayer, the fluorescence of Trp-113 should be quenched upon insertion into liposomes composed of dioleoylphosphatidylglycerol that had bromines attached at positions 9 and 10 of the acyl chains. We have indeed previously observed that tryptophans located at the boundary between the lipid head groups and the acyl chains were succeptible to bromide quenching.

[7] = compared to wild-type mTNF in vivo; cited from earlier work
[8] = system: murine model of peritonitis; conditions: cited from earlier work
trypanosome = conditions: compared to wild type TNF; cited from earlier work
[9] = 30 min preincubation at acidic pH (pH 6), TNF, mutTNF 100 ng/ml, peptides 100 μg/ml

Row | Molecule | induced increase in conductance in presence of amiloride ([1]; 100 μM amiloride added during pretreatment at pH 6.0) | whole cell current / membrane conductance [1, 9] | whole cell current / membrane conductance ([1]; preincubation at pH 7.3 (neutral pH)) | whole cell current [2] | whole cell current [3] | change in SPQ fluorescence / interaction with membranes ([4]; peptide concentrations up to 300 μg/ml, neutral, acidic or 1:1 lipids) | start of weight loss (isolated rat lungs) | acidic unfolding ([5]; acidification of the medium) | maximum emission of tryptophan fluorescence ([5]; pH 4.6) [nm] | maximum emission of tryptophan fluorescence ([5]; pH 6) [nm] | chloride efflux (SPQ fluorescence) ([4]; 100% EPG liposomes, pH 6.1, 3 μg/ml) | interaction with membranes ([4]; neutral pH) | fluorescence quenching by brominated lipids [6] | systemic toxicity [7] | peritonitis-protective effect [8] | trypanolytic and lectin-like affinity to oligosaccharides (trypanosome)
1 | GG-CGPKDTPEGAELKPWYC (Biotin-GGCGPKDTPEGAELKPWYC; disulfide 3-19; listed as Mus musculus) [LTip] | blocked | increased outward, and inward currents | persisted at neutral pH, although less pronounced | increased outward | also active | unable to interact with membranes | started immediately | – | – | – | – | – | – | – | – | –
2 | mutTNF: E.coli-derived recombinant (T104A-E106A-E109A) triple TNF mutant (protein, UniProt P06804 1-235, looked up, variant T104A E106A E109A) MSTESMIRDVELAEEALPQKMGGFQNSRRCLCLSLFSFLLVAGATTLFCLLNFGVIGPQRDEKFPNGLPLISSMAQTLTLRSSSQNSSDKPVAHVVANHQVEEQLEWLSQRANALLANGMDLKDNQLVVPADGLYLVYSQVLFKGQGCPDYVLLTHTVSRFAISYQEKVNLLSAVKSPCPKDAPAGAALKPWYEPIYLGGVFQLEKGDQLSAEVNLPKYLDFAESGQVYFGVIAL | – | completely lacked the conductance activating effect | – | – | – | – | – | able to undergo acidic unfolding | 339 | 318 | even more pronounced than that of wild type TNF | did not interact with membranes | unable to see any fluorescence quenching | significantly reduced systemic toxicity | retains its peritonitis-protective effect | lacks the trypanolytic and lectin-like affinity to oligosaccharides
